Results on 1 variant are retold here after IntAct's records for PubMed 20835227.

The labels stand for the following.
B1: DNA replication regulator SLD3 (Saccharomyces cerevisiae), P53135 (parent)
chain: METWEVIASVKEATKGLDLSLDHPLIIKSEDVPSNILQLLQQKNRRQLKHICMKSRKEYFLLEEYGPGFWVKWPYNYFNGYSLPERRTEVVTTVERERAKRETLKTWDELKFKELLHLWSEEPKGSCKLEKDKDLKLDMNPPDMKGESKINDYYSDPKEYIESKYYDALFSIHTPLAYFVKSNLVRLKNTCRTKYGSDSYKIAYQAMLQKFLLSIVQFKDRHDNRLLLEPFSSPIADEKRKNCLTKFVIQDENKNSSTIADLCVVLKSREIKLQILLLLEIIGLNDLDWNFRDFEKKYKLKLKKRSLNLTKKGLVRRRSKKKTSEKDKGIERITTSLDYCEQLDLYLDRACILDILLSSETPNPDAIEASNGTIQEHKKNILDKSKEASLVGFINYVLIPYFNKKVPHAVEFIIQKLKGPSMRPKRALKKVNDSTNVSSPNTVETYNRLSTSQRASRSSIINSVPSSPALRRVDANLFSRKSIASPTPELLNSRTNSNLNEFLESETRSLKRPSQLGRTKSDLTMNHLQKRQFSVSDLSTTRVPNSSTITLKTPFSHSTINAYKTMNNSFRRVGKRKDINETIRLHERVDSEENVQVQATPAVKKRTVTPNKKAQLQSIIESPLNFKDDDTHEGRKNTSNITSTPTNKPPENSSKRRVRRRLFAPEST
partner: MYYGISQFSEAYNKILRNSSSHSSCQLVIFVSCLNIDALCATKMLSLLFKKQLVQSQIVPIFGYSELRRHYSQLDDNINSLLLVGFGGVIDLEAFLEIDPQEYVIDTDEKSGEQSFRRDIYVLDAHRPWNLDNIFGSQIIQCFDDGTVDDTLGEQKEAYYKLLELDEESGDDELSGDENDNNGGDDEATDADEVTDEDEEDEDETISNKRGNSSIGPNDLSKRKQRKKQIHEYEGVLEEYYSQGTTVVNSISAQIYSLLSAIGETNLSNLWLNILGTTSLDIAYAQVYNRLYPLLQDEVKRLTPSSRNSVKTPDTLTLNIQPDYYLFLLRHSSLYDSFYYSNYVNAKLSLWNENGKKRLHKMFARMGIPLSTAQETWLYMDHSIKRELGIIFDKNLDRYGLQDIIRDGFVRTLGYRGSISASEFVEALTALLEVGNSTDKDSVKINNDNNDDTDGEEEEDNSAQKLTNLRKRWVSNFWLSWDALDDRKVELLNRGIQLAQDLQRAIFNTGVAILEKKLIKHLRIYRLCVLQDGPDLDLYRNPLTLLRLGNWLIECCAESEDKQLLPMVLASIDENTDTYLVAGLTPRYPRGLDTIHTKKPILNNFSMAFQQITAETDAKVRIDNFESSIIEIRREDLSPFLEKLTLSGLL

Variants of B1 are the subject of this test. Particulars: with cdc45_yeast CDC45, Q08032.
For S306D;T310D, the “effect of a mutation on the interaction” value is given as “disrupting interaction”.
